This assay has as its target Biotinylated MR1-β2m-5-OP-RU (UniProt Q95460). Nature of the assay: SPR.
Sequence of UniProt Q95460 (Q95460 23-302, chain 1 of 2): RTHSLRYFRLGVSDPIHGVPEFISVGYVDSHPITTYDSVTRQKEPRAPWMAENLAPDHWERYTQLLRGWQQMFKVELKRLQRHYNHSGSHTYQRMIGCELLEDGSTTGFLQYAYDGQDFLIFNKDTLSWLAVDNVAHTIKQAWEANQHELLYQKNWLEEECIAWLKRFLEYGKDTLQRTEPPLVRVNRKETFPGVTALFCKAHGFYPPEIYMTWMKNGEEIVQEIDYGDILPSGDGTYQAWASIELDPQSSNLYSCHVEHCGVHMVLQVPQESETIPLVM
Sequence of UniProt Q95460 (P61769 21-119, chain 2 of 2, further chain): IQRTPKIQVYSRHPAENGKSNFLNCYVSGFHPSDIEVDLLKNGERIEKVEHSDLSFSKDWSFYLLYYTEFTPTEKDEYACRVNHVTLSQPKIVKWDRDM

The Kd is the constant that tells how readily two partners part at equilibrium. The low end stands for tighter binding, the high end for weaker binding. Substance “A-F7 (TRAV1-2/TRBV6-1) adult MAIT TCR, soluble” yielded a Kd of 1920 nM.

(Values after article PMC13458692.)
